How the values were obtained:
[1] = target: HPV16 pseudovirions (HPV16-PsVs) (human papillomavirus type 16) (UniProt P03101)
[2] = target: HPV16 pseudovirions (HPV16-PsVs) (human papillomavirus type 16) (UniProt P03101); remark: listed apart in the source
[3] = target: HPV16 pseudovirions (HPV16-PsVs) (human papillomavirus type 16) (UniProt P03101); remark: listed apart in the source

Chain of UniProt P03101 (P03101 whole entry, chain 1 of 2): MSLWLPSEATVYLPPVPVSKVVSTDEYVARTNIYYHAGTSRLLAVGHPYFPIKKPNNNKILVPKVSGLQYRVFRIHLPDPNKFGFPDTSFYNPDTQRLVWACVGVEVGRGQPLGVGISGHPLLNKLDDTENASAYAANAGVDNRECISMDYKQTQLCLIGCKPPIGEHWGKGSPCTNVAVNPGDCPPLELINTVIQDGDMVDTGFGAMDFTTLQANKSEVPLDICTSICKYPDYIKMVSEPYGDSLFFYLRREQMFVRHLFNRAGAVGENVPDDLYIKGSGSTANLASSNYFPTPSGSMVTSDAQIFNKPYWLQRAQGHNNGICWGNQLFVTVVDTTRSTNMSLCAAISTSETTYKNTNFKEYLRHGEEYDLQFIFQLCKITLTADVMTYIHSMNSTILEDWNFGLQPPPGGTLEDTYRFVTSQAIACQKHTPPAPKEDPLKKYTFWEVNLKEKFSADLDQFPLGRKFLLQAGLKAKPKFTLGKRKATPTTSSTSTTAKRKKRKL
Chain of UniProt P03101 (P03107 whole entry, chain 2 of 2, further chain): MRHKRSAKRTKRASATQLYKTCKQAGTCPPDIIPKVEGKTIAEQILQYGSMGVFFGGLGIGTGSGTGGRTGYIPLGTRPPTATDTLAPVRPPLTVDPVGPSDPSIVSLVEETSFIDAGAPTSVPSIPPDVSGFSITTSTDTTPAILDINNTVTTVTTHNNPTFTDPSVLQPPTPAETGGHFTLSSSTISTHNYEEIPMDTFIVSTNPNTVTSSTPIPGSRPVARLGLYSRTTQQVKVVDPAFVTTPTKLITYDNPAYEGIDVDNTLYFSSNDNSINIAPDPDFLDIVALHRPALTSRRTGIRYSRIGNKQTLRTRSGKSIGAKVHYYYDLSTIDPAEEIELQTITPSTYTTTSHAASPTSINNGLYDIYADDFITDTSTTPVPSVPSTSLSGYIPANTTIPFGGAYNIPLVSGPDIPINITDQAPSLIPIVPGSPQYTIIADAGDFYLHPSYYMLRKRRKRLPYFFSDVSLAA

Substance: native human surfactant protein A (SP-A) (from UniProt Q8IWL2 21-248) (natural protein)
- uptake of SP-A-preincubated AF488-PsVs into RAW264.7 macrophages, MFI by flow cytometry, fold of the BSA control [1]: 1.75 fold
- uptake of SP-A-preincubated AF488-PsVs into RAW264.7 macrophages, positive cells by flow cytometry, fold of the BSA control [1]: 2 fold
- uptake of SP-A-preincubated AF488-PsVs into THP-1-derived immature dendritic cells (DC0), positive cells by flow cytometry, fold of the BSA control [1]: 2 fold
- uptake of SP-A-preincubated AF488-PsVs into THP-1 monocytes, MFI by flow cytometry, fold of the BSA control [1]: 1.3 fold
- uptake of SP-A-preincubated AF488-PsVs into HaCaT keratinocytes, positive cells by flow cytometry, against the BSA control (fold decrease) [2]: 2
- infection of HaCaT monocultures by SP-A-preincubated PsVs, Gaussia luciferase at 48 h, against the BSA control [3]: 40 % reduction
